The results in this text go back to US20030032096A1 (US Dept. of Health and Human Services, published 2003).

In experiment [1] the target is human parathyroid hormone type 2 receptor (PTH2 receptor) (human) (UniProt P49190). Put plainly: cell-based or functional assay.
The target of the next experiment is rat PTH2 receptor (rat, UniProt P70555 25-546). Put plainly: cell-based or functional assay.
The target in experiment [2] is human parathyroid hormone type 1 receptor (PTH1 receptor) (human) (UniProt Q03431). The experiment in a line: displacement of [125I][Nle8,21,Tyr34]rPTH(1-34), HEK293 membranes, 10 µM GTPγS.
Experiment [3] shares this target. The experiment in a line: direct dissociation of the radioligand from the PTH1 receptor.
For experiment [4] the target is unchanged. The experiment in a line: radioligand binding to the PTH1 receptor.
The target of experiment [5] is human parathyroid hormone type 2 receptor (PTH2 receptor) (human) (UniProt P49190). The experiment in a line: displacement of [125I]TIP39, HEK293 membranes, centrifugation assay.
The target is the same in experiment [6]. The experiment in a line: displacement of [125I]TIP39, HEK293 membranes, with against without GTPγS.
Experiment [7] deals with C-terminal hemaglutinin-tagged human PTH1 receptor (Example 11) (human) (UniProt Q03431). The experiment in a line: cell-based or functional assay.
In experiment [8] the target is human parathyroid hormone type 1 receptor (PTH1 receptor) (human) (UniProt Q03431). The experiment in a line: Motulsky and Mahan kinetic competition with [125I]TIP(7-39), HEK293 membranes.
Experiment [9] concerns the target human parathyroid hormone type 2 receptor (PTH2 receptor) (human) (UniProt P49190). Put plainly: membrane radioligand binding, presence of GTPγS.
The target is the same in experiment [10]. Put plainly: membrane radioligand binding, absence of GTPγS.
Experiment [11] has as its target human parathyroid hormone type 1 receptor (PTH1 receptor) (human) (UniProt Q03431). Put plainly: radioligand binding, HEK293 membranes, 10 µM GTPγS, 43 000 cpm added.
The target of experiment [12] is T1, human parathyroid hormone type 2 receptor (PTH2 receptor) (human, UniProt P49190 25-550).
T1 construct: whole, on cells; also called human PTH2 receptor; hPTH2 receptor
T1 sequence (P49190 25-550): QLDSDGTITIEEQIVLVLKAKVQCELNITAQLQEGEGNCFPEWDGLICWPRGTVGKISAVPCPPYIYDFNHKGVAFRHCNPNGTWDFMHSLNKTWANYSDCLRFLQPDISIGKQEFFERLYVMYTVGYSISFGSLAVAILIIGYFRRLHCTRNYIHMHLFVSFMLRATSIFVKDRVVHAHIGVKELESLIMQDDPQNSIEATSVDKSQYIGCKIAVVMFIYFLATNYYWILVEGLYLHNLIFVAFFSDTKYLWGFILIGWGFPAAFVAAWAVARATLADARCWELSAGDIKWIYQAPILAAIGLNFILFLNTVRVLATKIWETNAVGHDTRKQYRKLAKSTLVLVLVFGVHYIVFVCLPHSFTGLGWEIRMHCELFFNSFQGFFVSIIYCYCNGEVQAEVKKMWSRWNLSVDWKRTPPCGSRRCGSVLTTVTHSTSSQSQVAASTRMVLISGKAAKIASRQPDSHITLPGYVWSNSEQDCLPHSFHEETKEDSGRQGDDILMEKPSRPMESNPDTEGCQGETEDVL
Put plainly: displacement of [125I]TIP39, 293PTH2 membranes, filtration assay.

Experiment [13] concerns the target T2, human parathyroid hormone type 1 receptor (PTH1 receptor) (human, UniProt Q03431 27-593).
T2 construct: whole, on cells; also called human PTH1 receptor
T2 sequence (looked up): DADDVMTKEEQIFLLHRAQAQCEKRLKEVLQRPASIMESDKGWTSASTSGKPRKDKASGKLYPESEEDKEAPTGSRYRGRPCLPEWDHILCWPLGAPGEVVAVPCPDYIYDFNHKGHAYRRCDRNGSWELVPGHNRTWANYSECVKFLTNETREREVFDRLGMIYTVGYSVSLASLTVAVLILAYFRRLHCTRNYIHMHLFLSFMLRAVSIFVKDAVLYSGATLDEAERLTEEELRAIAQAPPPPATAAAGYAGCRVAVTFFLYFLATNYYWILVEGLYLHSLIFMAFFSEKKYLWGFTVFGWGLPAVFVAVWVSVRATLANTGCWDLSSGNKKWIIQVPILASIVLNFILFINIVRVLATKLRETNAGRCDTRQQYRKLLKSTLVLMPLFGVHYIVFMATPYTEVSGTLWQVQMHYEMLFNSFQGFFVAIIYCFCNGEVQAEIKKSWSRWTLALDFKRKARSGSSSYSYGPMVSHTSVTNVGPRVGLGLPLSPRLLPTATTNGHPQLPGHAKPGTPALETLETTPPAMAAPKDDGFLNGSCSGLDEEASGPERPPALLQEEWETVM
The experiment in a line: saturation binding, HEK293 membranes, filtration.
Method: (§1) Total binding data were analyzed using Equation 3. For presentation purposes the non-specific binding has been subtracted and specific binding values expressed as pmol radioligand bound per mg of membrane protein. Data points are mean±s.e.m. of triplicate determinations. The experiment was performed three times with similar results. In most cases the error bars are enclosed within the symbol. […] Linear regression analysis was performed on pooled data to obtain estimates of kₒₙ (provided by the gradient) and koff (provided by the y intercept). […] Dissociation time course. The line is the best fit of the data to a mono-exponential function. […] Data points are the mean±s.e.m. of triplicate measurements. The experiment was performed twice with similar results. In most cases the error bars are enclosed within the symbol.
(§2) Incubations were carried out in 96-well polypropylene plates. The incubation mixture was transferred to a polyvinylidene fluoride filtration plate (MAHVN45, Millipore, Bedford, Mass.) and the membranes collected by rapid filtration using a Millipore Multiscreen vacuum manifold. […] In radioligand association experiments, radioligand and buffer were brought to 21° C. by incubation in a water bath for 15 minutes. Similarly pre-warmed membranes were then added to the wells at various time points and the assay wells harvested simultaneously.

Experiment [14] has as its target T2, human parathyroid hormone type 1 …. Put plainly: radioligand binding, HEK293 membranes, filtration.
Method: Incubations were carried out in 96-well polypropylene plates. The incubation mixture was transferred to a polyvinylidene fluoride filtration plate (MAHVN45, Millipore, Bedford, Mass.) and the membranes collected by rapid filtration using a Millipore Multiscreen vacuum manifold. […] In radioligand association experiments, radioligand and buffer were brought to 21° C. by incubation in a water bath for 15 minutes.
Experiment [15] shares this target. Put plainly: kinetically derived from association and dissociation of the radioligand, HEK293 membranes.
Method: as §1, §2
Experiment [16] has the same target. Put plainly: dissociation time course of the radioligand, HEK293 membranes.
Method: as §1, §2
For experiment [17] the target is unchanged. The experiment in a line: y intercept of kon(obs) against radioligand concentration, HEK293 membranes.
Method: as §1, §2
Experiment [18] has the same target. Put plainly: radioligand association kinetics, HEK293 membranes, filtration; value held constant in the fit of FIG. G.
Method: as §1, §2
Experiment [19] shares this target. The experiment in a line: radioligand dissociation kinetics, HEK293 membranes, filtration; value held constant in the fit of FIG. G.
Method: as §1, §2
Experiment [20] deals with human parathyroid hormone type 2 receptor (PTH2 receptor) (human) (UniProt P49190). Put plainly: cell-based or functional assay. This is another data set of the same source.
In experiment [21] the target is human parathyroid hormone type 1 receptor (PTH1 receptor) (human) (UniProt Q03431). The experiment in a line: cell-based or functional assay.
The target of experiment [22] is T1, human parathyroid hormone type 2 …. Put plainly: displacement of [125I]TIP39, 293PTH2 membranes, centrifugation assay, 10 µM GTPγS.
Method: (§3) This assay measures the affinity of ligands for the free receptor, uncoupled from G-protein.
(§4) A similar assay design was used for the PTH1 and PTH2 receptor, in which radiolabeled agonist binding was displaced by the unlabeled ligands in the presence of 10 μM GTPγS. Briefly, cell membranes (45 μg), radioligand (50 000 cpm) and unlabeled ligand were incubated in a final volume of 1 ml assay buffer (20 mM HEPES, 100 mM NaCl, 1 mM EDTA, 3 mM MgSO₄ pH 7.5, supplemented with 0.3% non-fat dried milk powder, 100 μM (4-(2-aminoethyl))-benzenesulfonylflouride (AEBSF), 1 μg/ml bacitracin and 10 μM GTPγS) for two hours at 21° C. Membranes were collected at 18 000×g, the surface of the pellet gently washed and the radioactivity counted as described in Examples. […] To prevent greater than 20% of the total radioligand added from binding to the membranes, 15-20 μg of membranes from transfected cells were used, made up to 45 μg with membranes from non-transfected cells.
For experiment [23], the target named is T2, human parathyroid hormone type 1 …. Put plainly: displacement of [125I][Nle8,21,Tyr34]rPTH(1-34), 293PTH1 membranes, filtration assay.
From the text: Under the conditions of the assay, the receptor-G-protein complex is the predominant receptor state detected.
Experiment [24] has the same target. The experiment in a line: radioligand displacement, 293PTH1 membranes, centrifugation assay, 10 µM GTPγS.
The target is the same in experiment [25]. Put plainly: cell-based or functional assay.
For experiment [26] the target is unchanged. The experiment in a line: displacement of [125I][Nle8,21,Tyr34]rPTH(1-34), 293PTH1 membranes, centrifugation assay, 10 µM GTPγS.
Method: as §3, §4

Values joined by “and” are separate entries in the source; they are usually repeats but may differ in a detail not shown here. Equal values may be shown once. Read-outs that look alike come from different tables or passages of the source. No end group written: not given here. *: point of attachment. 125I = [125I]*

rat PTH2 receptor, sequence (P70555 25-546): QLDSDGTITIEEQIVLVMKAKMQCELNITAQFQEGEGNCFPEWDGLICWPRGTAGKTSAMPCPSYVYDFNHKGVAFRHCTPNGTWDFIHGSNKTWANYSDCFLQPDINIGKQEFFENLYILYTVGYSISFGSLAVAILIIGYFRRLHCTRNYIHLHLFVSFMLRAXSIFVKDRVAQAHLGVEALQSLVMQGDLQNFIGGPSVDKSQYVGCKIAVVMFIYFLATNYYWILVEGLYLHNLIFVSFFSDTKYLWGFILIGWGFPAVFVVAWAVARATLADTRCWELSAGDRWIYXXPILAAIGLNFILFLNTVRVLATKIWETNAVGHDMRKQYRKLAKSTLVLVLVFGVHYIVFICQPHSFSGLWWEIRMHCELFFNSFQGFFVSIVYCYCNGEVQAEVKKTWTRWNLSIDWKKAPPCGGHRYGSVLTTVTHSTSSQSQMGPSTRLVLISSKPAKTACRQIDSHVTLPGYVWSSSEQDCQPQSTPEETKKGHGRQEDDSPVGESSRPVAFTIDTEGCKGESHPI
human parathyroid hormone type 2 receptor (PTH2 receptor) (human), sequence (P49190 25-550): as the sequence (P49190 25-550) above

Take “PTHrP(1-34) (from UniProt P12272 37-70) (peptide)”: in experiment [1], the Emax, % of response to 1 µM hPTH(1-34) turned out to be 25%. In the experiment with rat PTH2 receptor, this molecule yielded an Emax, % of response of hPTH2r to 1 µM hPTH(1-34) of 7% and an Emax, % of response of rPTH2r to 3 µM rPTH(1-34) of 14%.
Take “hPTH(1-34) (from UniProt P01270 32-65) (peptide)”: in experiment [1], the maximal ligand-stimulated cAMP production turned out to be 4 pmol.well^-1 and the maximal ligand-stimulated cAMP production (25 µl assay volume) came out at 6 pmol.well^-1. In the experiment with rat PTH2 receptor, this molecule gave an Emax, % of response of hPTH2r to 1 µM hPTH(1-34) of 22% and an Emax, % of response of rPTH2r to 3 µM rPTH(1-34) of 43%.
In experiment [1], “[Nle^8,18, Tyr^34]bPTH(1-34) (from UniProt P01268 32-65) (peptide)” had a -logEC50 (cAMP accumulation) of 8.41; an EC50 (cAMP accumulation) of 3.9 nM; an Emax, % of response to 1 µM hPTH(1-34) of 76%. Besides, in the experiment with rat PTH2 receptor, the -logEC50 (cAMP accumulation) is 6.85; the EC50 (cAMP accumulation) stood at 141 nM; the Emax, % of response of hPTH2r to 1 µM hPTH(1-34) stood at 5%; the Emax, % of response of rPTH2r to 3 µM rPTH(1-34) came to 19%.
The molecule “[D-Tryp^12, Tyr^34]bPTH(7-34) amide (from UniProt P01268 38-65) (peptide)” gave a fold difference of IC50 against TIP(7-39) in [2] of 7.3 fold.
With “[^125I][Nle^8,18, Tyr^34]bPTH(3-34) (from UniProt P01268 34-65) (peptide)”, the off-rate constant (koff) in experiment [3] amounted to 0.00102 s⁻¹. The signal-to-noise ratio in [4] was 6.
For the molecule “hPTH(1-84) (from UniProt P01270 32-115) (peptide)”, in [1], the Emax, % of response to 1 µM hPTH(1-34) is 79%.
The molecule “[Nle^8,21, Tyr^34]rPTH(1-34) amide (from UniProt P04089 32-65) (peptide)” gave an IC50 in experiment [5] of 1.1 nM. Also, the fold increase of IC50 with GTPγS in [6] stood at 1.5 fold.
In [1], “[Nle^8,18, Tyr^34]bPTH(3-34) amide (from UniProt P01268 34-65) (peptide)” returned a -logEC50 (cAMP accumulation) of 8.28; an EC50 (cAMP accumulation) of 5.2 nM; an Emax, % of response to 1 µM hPTH(1-34) of 37%. The Emax, % of the maximal response to rPTH(1-34) (cAMP, COS-7 cells) in [7] worked out at 26%. The off-rate (koff) in [8] was found to be 0.0005 s⁻¹.
With “[Nle^8,18, D-Tryp^12, Tyr^34]bPTH(7-34) amide (from UniProt P01268 38-65) (peptide)”, in experiment [1], the pA2 (shift of rPTH(1-34) cAMP EC50 by 1 µM antagonist) was 6.5 and the pA2 as concentration worked out at 320 nM. In addition, in the experiment with rat PTH2 receptor, the pA2 (shift of rPTH(1-34) cAMP EC50 by 1 µM antagonist) was 6.5 and the pA2 as concentration is 310 nM.
Regarding “[^125I][Nle^8,21, Tyr^34]rPTH(1-34) (from UniProt P04089 32-65) (peptide)”, the signal-to-noise ratio came out at 2 fold in [9] and 3.5 fold in experiment [10]. For the same molecule, in experiment [11], the total binding (cpm) was 4400 cpm and 4800 cpm.
For ALADDAAFRERARLLAALERRHWLNSYMHKLLVLDAP [TIP(3-39)], in experiment [12], the binding result is reported as “binds”.
For the molecule ADDAAFRERARLLAALERRHWLNSYMHKLLVLDAP [TIP(5-39)], the binding result in experiment [12] is reported as “binds”.

B1: [^125I]TIP(7-39) (peptide)
peptide: DAAFRERARLLAALERRHWLNSY(125I)MHKLLVLDAP
notes: 2000 Ci/mmol; also called radiolabeled TIP(7-39)
Turning to B1, the results for the dissociation constant Kd in experiment [13] and in experiment [15] were 1.3 nM and 0.57 nM, respectively. The “total binding: non-specific binding ratio” value in experiment [14] was around 5. Also, the koff in experiment [16] is 0.000833 s⁻¹; in experiment [17], 0.00128 s⁻¹; in [19] it was 0.00085 s⁻¹. In addition, the association rate constant (kon) in experiment [18] came out at 1.48e+06 M⁻¹ s⁻¹.

B2: rPTH(1-84) (peptide, UniProt P04089 32-115, looked up)
peptide: AVSEIQLMHNLGKHLASVERMQWLRKKLQDVHNFVSLGVQMAAREGSYQRPTKKEENVLVDGNSKSLGEGDKADVDVLVKAKSQ
In the case of B2, in experiment [20], the -logEC50 (cAMP accumulation) amounted to 9.24; the EC50 (cAMP accumulation) worked out at 0.58 nM; the Emax, % of response to 1 µM hPTH(1-34) is 98%. Further, in the experiment with rat PTH2 receptor, the -logEC50 (cAMP accumulation) stood at 7.72; the EC50 (cAMP accumulation) worked out at 19 nM; the Emax, % of response of hPTH2r to 1 µM hPTH(1-34) was found to be 28%; the Emax, % of response of rPTH2r to 3 µM rPTH(1-34) was determined as 97%.
In experiment [20], SEIQFMHNLGKHLSSMERVEWLRKKLQDVHNF (peptide, UniProt P01268 34-65, looked up) [bPTH(3-34)] had a -logEC50 (cAMP accumulation) of 8.05; an EC50 (cAMP accumulation) of 8.9 nM; an Emax, % of response to 1 µM hPTH(1-34) of 38%.
In experiment [21], AVSEIQLMHNLGKHLASVERMQWLRKKLQDVHNF (peptide, UniProt P04089 32-65, looked up, also: binding, rPTH(1-34) denotes the [Nle8,21, Tyr34] analogue) [rPTH(1-34)] registered an EC50 (cAMP production, HEK293 cells) of 0.5 nM. In [20], the -logEC50 (cAMP accumulation) came out at 9.39; the EC50 (cAMP accumulation) was 0.41 nM; the EC50 (cAMP production, HEK293 cells) came out at 58000 nM; the EC50 (cAMP) amounted to 0.15 nM. In experiment [20], this molecule came in with an Emax of 85% and an Emax, % of response to 1 µM hPTH(1-34) of 94%. In the experiment with rat PTH2 receptor, this molecule yielded a -logEC50 (cAMP accumulation) of 7.09; an EC50 (cAMP accumulation) of 81 nM; an EC50 (cAMP) of 49 nM; an Emax, % of response of hPTH2r to 1 µM hPTH(1-34) of 46%. In addition, in the experiment with rat PTH2 receptor, the Emax, % of response of rPTH2r to 3 µM rPTH(1-34) worked out at 100% and the maximal ligand-stimulated cAMP production (50 µl-volume assays) was 2.1 pmol.well^-1.

B3: TIP(2-39) (peptide)
peptide: LALADDAAFRERARLLAALERRHWLNSYMHKLLVLDAP
notes: N-terminally truncated TIP39 analogue from Biomolecules Midwest
Take B3: in experiment [12], the binding result is reported as “binds”.
For DAAFRERARLLAALERRHWLNSYMHKLLVLDAP (also called bTIP(7-39)) [TIP(7-39)], in experiment [22], the “-logIC50” value is 7.01, the IC50 came to 98 nM and the “fold lower binding potency than full-length TIP39” value came to 32 fold. Moreover, the “fold higher affinity than TIP39” value in experiment [23] came to 5.6 fold. In [24], the “fold higher affinity than TIP39” value was 12 fold. Further, in experiment [12], the “fold lower affinity than full-length TIP39” value came out at 70 fold. In experiment [25], the “fold-shift of rPTH(1-34) EC50 by 1 µM TIP(7-39), 20% human plasma” value came out at 11 fold and the “fold-shift of rPTH(1-34) EC50 by 1 µM TIP(7-39), absence of plasma” value worked out at 7 fold. Further, in [26], the “-logIC50” value worked out at 8.3 and the IC50 was 5 nM.
